In the supplement of paper PMC10567573:

B1: IQUB (parent)
chain: EADYEDDSKIAFLMQLQDIQYLTE
B2: DUSP5 (parent)
chain: YSEYPECCVDVKPISQEKIESERA

Variants of: B1
Experiment: protein stability index of a GFP-peptide fusion (GPS, HEK-293T) (PSI 1-6); higher = more stable
Conditions: c terminus: a fixed tail appended
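Further: lentivirally expressed fusions sorted by FACS into six bins by GFP to DsRed ratio, PSI derived from sequencing read proportions per bin multiplied by bin number.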

Protein stability index of substitutions, site by site:
I19: V 3.86; Q 4.11; P 4.18; W 2.64; T 4.15; L 2.86; M 3.68; C 3.96; N 3.98; K 4.86; F 3.44; R 3.78; A 4.17; E 4.96; H 3.98; D 4.94; Y 3.54; G 4.31; S 4.35
T23: D 4.09; A 2.26; F 1.98; C 1.87; Q 3.89; R 3.29; K 3.2; G 3.19; L 2.12; Y 2.21; P 4.17; S 3.21; N 3.89; H 3.29; M 1.92; V 1.92; W 1.97; I 1.54; E 4.16
E24: C 2.33; V 1.81; N 2.61; M 1.86; P 3.29; R 2.07; D 3.32; A 2.91; G 2.89; W 2.45; K 2.73; Y 2.36; T 2.54; L 1.56; I 1.67; H 2.48; S 2.71; Q 2.72; F 1.92
D18: I 1.39; V 2.22; G 2.92; R 2.32; L 1.69; Q 2.68; T 1.72; H 2.58; Y 1.54; P 2.83; E 2.86; A 1.74; K 2.65; C 1.84; F 2.33; M 1.83; N 2.58; S 2.24; W 2.2
Y21: N 3.87; I 3.19; K 3.51; M 3.45; W 2.95; H 3.55; S 3.52; E 4.21; G 4.07; T 4.06; R 2.99; P 3.77; L 3.44; D 4.45; F 2.78; A 3.81; Q 3.64; V 3.51; C 3.74
F12: T 4.94; S 4.61; R 4.38; V 3.54; Y 3.73; W 3.18
L22: G 4.5; Q 3.83; M 3.4; H 4.07; D 4.97; Y 3.21; A 4.16; P 4.51; T 3.96; S 3.99; V 3.42; K 3.79; R 3.94; E 4.7; W 3.07; C 3.67; N 4.65; I 3.62; F 2.91
Q15: F 1.77; A 2.61; K 2.9; W 1.78; N 2.84; E 3.36; H 2.44; R 2.89; V 1.76; L 2.04; I 1.98; Y 2.09; C 2.09; G 3.76; S 2.46; T 2.19; P 3.39; D 3.1; M 2.36
Q17: I 1.76; P 3.21; K 2.87; L 2.68; Y 2.51; G 3.46; S 2.69; D 3.73; V 2.67; C 2.25; R 2.57; F 2.68; T 2.96; N 3.5; E 3.43; W 2.02; A 2.5; H 3.13; M 2.17
Q20: M 2.48; C 2.2; P 3.45; A 2.5; E 3.98; K 3.46; H 3.12; R 3.67; Y 1.62; F 1.54; S 3.61; L 1.69; T 3.05; D 3.86; V 2.19; N 3.22; W 2.35; I 2.64; G 2.97
L16: P 4.37; N 4.33; C 4.06; S 4.26; T 3.75; M 3.55; D 4.58; E 3.96; G 4.76; R 3.99; A 4.13; I 2.95; K 4.53; Y 3.64; H 4.43; Q 4.19; V 3.71; W 3.25; F 3.42
L13: P 4.68; C 3.5; S 4.41; D 4.68; Q 4.34; G 4.29; A 4.02; I 2.77; E 4.54; K 4.11; H 4.15; M 3.26; N 4.55; W 3.51; V 3.12; R 3.88; F 2.85; Y 2.84; T 4.3
M14: Y 2.92; T 4.04; K 3.77; D 4.27; I 2.6; S 3.95; R 3.75; H 3.96; G 4.37; C 3.21; A 3.4; F 2.46; L 2.32; P 4.46; W 2.42; Q 4.23; V 2.7; N 4.26; E 4.06

Variants of: B2
Experiment: as above
Conditions: c terminus: a fixed tail appended

Protein stability index of substitutions, site by site:
I14: D 4.81; A 4.58; Q 4.48; G 3.83; H 4.29; M 4.65; K 4.43
S15: Q 4.05; Y 4.18; A 4.16; P 4.38
S21: V 4.36; I 3.42
R23: K 4.65; W 3.41; T 4.44; P 4.55
D10: L 2.98; R 2.84; C 2.69; P 3.96; W 1.74; A 3.56; M 2.91
E17: R 2.95; V 2.86; D 3.75; Y 3.1; I 3.17
E20: Q 3.65; I 3.49; L 3.94; F 3.56; A 4.89; N 3.6
Q16: Y 3.37; G 4.06; F 3.58; V 3.41; R 4.34
Y4: T 5.77; S 5.19
P5: Q 5.33; N 5.38; F 3.18; M 3.98; T 4.85
V11: L 3.84; R 3.45; D 5.42; C 3.38; Q 5
E6: P 2.4; M 1.63; V 2.37; H 2.47; C 2.6; D 4.55
P13: E 4.19; K 4.12; T 4.18; V 2.85
K18: C 3.1
I19: N 4.61; H 3.01
V9: G 4.4; C 4.12; D 4.12
E3: P 4.56; Y 4.24; N 4.62; A 4.55; Q 4.36
Y1: D 5.29; V 5.31; K 5.36; M 5
C8: A 4.56; M 4.59; K 4.87; S 4.66
C7: L 3.75; V 3.95; N 4.64
K12: W 3.26; N 4.07; Q 4.77; F 3.83; R 4.25
S2: G 5.11; P 4.88; K 5.35; E 5.79; T 2.62
A24: P 3.88; H 3.73; D 4.45
E22: C 3.51; T 4.17; Q 3.54
